According to publication PMC9643335:

Target: Trypanosoma brucei ADAT3 (Trypanosoma brucei)
Experiment: cryo-EM structure; TbADAT2/3 heterodimer co-expressed in Hi5 cells, purified via the His tag on TbADAT3 (1 M KCl wash), tag cleaved, SEC; mixed with in vitro transcribed TbtRNA-Thr(CGU) in 20 mM Hepes pH 7.5, 50 mM NaCl, 2 mM MgCl2, 0.5 mM TCEP, SEC, vitrified

## Trypanosoma brucei ADAT2 (A87G/C117S) (enzyme)
  stoichiometry N: 1
